In the series the target is T1, SCEEVCKPGGP (SEQ ID NO:47).
T1 chain: SCEEVCKPGGP

B1: Cathepsin K (protein)
chain: APDSVDYRKKGYVTPVKNQGQCGSCWAFSSVGALEGQLKKKTGKLLNLSPQNLVDCVSENDGCGGGYMTNAFQYVQKNRGIDSEDAYPYVGQEESCMYNPTGKAAKCRGYREIPEGNEKALKRAVARVGPVSVAIDASLTSFQFYSKGVYYDESCNSDNLNHAVLAVGYGIQKGNKHWIIKNSWGENWGNKGYILMARNKNNACGIANLASFPKM
B1: the “cleavage of the peptide by the enzyme” value was “This peptide did not inhibit cathepsin K but rather was cleaved by the enzyme”.

The record behind these values is patent US20150133367.
